Test [1] addresses ZDIII-WT, soluble purified protein with C-terminal SpyTag (Zika virus H/PF/2013, UniProt A0A024B7W1). The test is described as follows: ELISA. On the technique in general: In an ELISA, binding on a coated surface is turned into a signal by an enzyme label.
Test [2] addresses ZDIII-WT as used in BLI (taken as the His6-MBP-ZDIII-WT fusion protein) (Zika virus H/PF/2013, UniProt A0A024B7W1). The test is described as follows: BLI.
Test [3] has as its target MBP alone (negative control in BLI) (Escherichia coli K12, UniProt P0AEX9 = MBP). The test is described as follows: BLI.

Consider two molecules from PMC9133142 (Cell chemical biology, 2022).

The EC50 is the concentration needed to bring the measured effect to its halfway point. Lower therefore signals an effect from little substance. The Kd is the equilibrium constant for the complex coming apart. A lower Kd goes with tighter binding.

UniProt A0A024B7W1, sequence (A0A024B7W1 whole entry, looked up, the tested form may be a part): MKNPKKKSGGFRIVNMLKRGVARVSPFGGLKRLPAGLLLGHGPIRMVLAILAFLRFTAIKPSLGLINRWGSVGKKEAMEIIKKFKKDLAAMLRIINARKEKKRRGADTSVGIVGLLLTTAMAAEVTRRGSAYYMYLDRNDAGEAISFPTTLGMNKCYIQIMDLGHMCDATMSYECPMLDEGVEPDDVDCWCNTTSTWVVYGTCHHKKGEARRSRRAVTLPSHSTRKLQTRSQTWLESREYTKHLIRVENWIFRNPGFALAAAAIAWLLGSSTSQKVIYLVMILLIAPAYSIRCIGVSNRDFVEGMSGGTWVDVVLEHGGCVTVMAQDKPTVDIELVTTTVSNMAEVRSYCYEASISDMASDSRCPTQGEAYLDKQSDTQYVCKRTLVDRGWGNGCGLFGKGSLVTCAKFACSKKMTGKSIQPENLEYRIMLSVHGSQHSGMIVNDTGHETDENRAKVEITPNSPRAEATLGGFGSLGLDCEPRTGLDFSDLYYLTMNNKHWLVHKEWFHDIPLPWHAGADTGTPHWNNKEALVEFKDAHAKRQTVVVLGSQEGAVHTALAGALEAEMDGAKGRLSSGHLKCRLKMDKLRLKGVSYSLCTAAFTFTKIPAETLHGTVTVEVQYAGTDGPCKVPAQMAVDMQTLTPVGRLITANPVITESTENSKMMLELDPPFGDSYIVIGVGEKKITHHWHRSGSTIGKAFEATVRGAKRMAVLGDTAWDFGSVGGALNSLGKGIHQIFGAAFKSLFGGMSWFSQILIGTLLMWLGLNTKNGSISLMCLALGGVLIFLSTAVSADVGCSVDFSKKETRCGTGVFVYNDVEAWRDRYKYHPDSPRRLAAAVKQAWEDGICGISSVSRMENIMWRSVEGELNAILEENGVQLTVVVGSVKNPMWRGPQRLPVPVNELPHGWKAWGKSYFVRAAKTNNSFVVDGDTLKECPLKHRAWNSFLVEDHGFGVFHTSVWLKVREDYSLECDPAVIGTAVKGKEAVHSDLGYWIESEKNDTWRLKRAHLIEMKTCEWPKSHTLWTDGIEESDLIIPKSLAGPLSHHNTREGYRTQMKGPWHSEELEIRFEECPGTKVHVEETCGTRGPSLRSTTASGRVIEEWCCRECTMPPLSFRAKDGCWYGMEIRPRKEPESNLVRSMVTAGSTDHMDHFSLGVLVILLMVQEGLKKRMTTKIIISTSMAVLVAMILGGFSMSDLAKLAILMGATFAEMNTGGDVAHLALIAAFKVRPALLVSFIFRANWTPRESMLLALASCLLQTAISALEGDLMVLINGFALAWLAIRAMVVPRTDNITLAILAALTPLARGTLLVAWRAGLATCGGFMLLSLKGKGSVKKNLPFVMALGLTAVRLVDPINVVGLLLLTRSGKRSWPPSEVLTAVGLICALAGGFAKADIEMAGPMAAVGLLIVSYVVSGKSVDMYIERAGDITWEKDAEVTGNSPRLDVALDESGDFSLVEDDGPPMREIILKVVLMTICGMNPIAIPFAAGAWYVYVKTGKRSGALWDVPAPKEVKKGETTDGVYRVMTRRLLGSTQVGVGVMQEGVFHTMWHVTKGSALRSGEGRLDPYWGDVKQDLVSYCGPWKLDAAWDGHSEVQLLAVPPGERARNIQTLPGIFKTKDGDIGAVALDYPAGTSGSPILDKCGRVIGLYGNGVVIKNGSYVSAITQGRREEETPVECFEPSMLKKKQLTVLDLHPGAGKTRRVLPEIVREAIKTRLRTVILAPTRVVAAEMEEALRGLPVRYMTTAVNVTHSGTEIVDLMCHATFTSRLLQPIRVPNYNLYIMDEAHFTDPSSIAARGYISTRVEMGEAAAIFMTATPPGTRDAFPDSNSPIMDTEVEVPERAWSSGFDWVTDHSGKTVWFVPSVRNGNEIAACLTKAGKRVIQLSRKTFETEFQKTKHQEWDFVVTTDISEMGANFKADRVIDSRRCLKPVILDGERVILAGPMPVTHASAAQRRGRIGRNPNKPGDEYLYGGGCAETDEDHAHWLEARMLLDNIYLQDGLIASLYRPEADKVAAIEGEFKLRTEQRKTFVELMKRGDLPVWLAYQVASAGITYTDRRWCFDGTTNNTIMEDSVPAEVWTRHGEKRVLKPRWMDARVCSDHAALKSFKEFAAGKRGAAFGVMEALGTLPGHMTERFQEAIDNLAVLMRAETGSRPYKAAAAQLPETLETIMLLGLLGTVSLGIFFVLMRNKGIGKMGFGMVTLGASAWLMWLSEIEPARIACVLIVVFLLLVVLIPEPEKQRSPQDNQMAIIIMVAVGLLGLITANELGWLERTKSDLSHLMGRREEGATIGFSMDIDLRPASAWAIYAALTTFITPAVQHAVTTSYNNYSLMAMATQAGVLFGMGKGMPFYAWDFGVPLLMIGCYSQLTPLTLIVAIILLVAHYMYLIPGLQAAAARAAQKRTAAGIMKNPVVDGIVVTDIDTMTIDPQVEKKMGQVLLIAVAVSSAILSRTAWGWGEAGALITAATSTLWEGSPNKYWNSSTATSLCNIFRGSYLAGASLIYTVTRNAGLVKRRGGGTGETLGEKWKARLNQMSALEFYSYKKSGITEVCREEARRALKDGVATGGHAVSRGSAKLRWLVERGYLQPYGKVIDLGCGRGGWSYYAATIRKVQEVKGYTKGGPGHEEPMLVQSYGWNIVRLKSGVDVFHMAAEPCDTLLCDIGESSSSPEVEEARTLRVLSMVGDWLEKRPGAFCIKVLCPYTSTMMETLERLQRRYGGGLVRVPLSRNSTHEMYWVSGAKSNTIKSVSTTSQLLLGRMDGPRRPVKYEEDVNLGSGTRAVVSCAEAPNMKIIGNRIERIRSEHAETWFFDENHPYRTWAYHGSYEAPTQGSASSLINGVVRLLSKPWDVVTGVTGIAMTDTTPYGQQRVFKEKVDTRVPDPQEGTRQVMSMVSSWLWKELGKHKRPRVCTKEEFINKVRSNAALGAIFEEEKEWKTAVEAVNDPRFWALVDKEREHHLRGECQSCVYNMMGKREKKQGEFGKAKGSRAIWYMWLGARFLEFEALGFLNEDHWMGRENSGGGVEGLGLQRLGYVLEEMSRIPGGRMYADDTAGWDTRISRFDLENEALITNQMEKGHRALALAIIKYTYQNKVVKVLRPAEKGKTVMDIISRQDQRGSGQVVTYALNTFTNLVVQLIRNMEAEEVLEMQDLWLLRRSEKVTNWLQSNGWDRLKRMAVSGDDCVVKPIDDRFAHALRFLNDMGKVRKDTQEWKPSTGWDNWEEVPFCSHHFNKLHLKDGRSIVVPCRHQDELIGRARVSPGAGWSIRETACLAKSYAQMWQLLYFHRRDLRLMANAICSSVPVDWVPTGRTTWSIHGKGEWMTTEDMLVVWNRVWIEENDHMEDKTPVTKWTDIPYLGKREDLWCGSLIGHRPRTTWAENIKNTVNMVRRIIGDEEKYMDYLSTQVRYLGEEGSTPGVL

B1: mAb ZV-67 (antibody, V domains shown)
VH: QAQLQQSGTGLARPGASVKLSCKASGYTFTSYGISWVTQRAGQGLEWIGVIYPRSGNTYYNEKFRGKATLTADKSSSSAYMELRGLTAEDSAVYFCARENYGSVYWGQGTTLTVSS
VL: DIVMTQSQKFMSTSVGDRVSITCKASQNVGTAVAWYQQKPGQSPKLLIYSASNRYTGVPDRFTGSGSGTDFTLTISNMQSEDLADYFCQQFSSYPYTFGGGTKLEIK
In test [1], B1 gave an EC50 of 14 nM. The molecule further had an equilibrium dissociation constant (Kd) in test [2] of 43 ± 1.1 nM. The binding result in test [3] is on record as “no binding”.

B2: mAb ZV-2 (antibody, V domains shown)
VH: QVQLQESGAELMKPGASVKLSCKTSGYTFIGYWIEWLKQRPGHGLEWVGEIFPGSGRTKYNEKFKGRATFTADTSSNMAYMQLSSLTTEDSAIYYCARYYYGSYYALDYWGQGTSVTVSS
VL: DIVMTQSPSSLSVSAGEKVTLSCKSSQSLLHSGNQKNYLAWYQQKPGQAPKLLIYGASTRESGVPDRFTGSGSGTDFTLTISSVQAEDLAVYYCQNDHSYPLTFGAGTKLELK
B2 came in with a Kd in test [2] of 10.7 ± 0.09 nM. The binding result in test [3] was “no binding”.
